Results from US20250026849A1 (ARCELLX, published 2025).
Residue numbers refer to the chain shown, from its start. Each block holds one binder with its values, some of them ahead of it.

Key:
BCMA = target: T1, BCMA (Homo sapiens (Human), UniProt Q02223 1-54, limits assumed); test: ELISA, format not described; set-up: unit not given here
T1 sequence: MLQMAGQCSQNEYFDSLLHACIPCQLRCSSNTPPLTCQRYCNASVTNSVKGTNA

P26 = target: T2, P26 (human, UniProt P02771 381-609, limits assumed); test: ELISA, format not described; set-up: unit not given here
T2 construct: also called AFP p26
T2 sequence: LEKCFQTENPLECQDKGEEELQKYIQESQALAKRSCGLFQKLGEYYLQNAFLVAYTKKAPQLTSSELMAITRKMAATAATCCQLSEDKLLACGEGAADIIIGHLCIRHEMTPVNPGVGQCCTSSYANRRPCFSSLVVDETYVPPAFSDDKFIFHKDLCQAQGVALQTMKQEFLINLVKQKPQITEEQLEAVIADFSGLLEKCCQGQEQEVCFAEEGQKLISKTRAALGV

B1: D-domain SEQ ID NO: 66 (designed binder)
chain: MGSWIEFQERLDAIFYRLHALGGSEAELAAFEKEIAAFESELQAYKGKGNPEVEDLRDAAATIRRQLQAYRHN
ELISA_avg (BCMA): 18.6

B4: D-domain SEQ ID NO: 53 (designed binder)
chain: MGSWIEFSWRLEAIRQRLQALGGSEAELAAFEKEIAAFESELQAYKGKGNPEVESLRSYAARIRQELQAYRHN
ELISA_avg (BCMA): 9.92

B8: D-domain SEQ ID NO: 54 (designed binder)
chain: B4 chain with I5V
ELISA_avg (BCMA): 19.1

B14: D-domain SEQ ID NO: 108 (designed binder)
chain: MGSWSEFQQRLHAIRTRLYALGGSEAELAAFEKEIAAFESELQAYKGKGNPEVEELRFEAAIIRVMLQAYRHN
ELISA_avg (BCMA): 11.6

B19: D-domain SEQ ID NO: 75 (designed binder)
chain: B14 chain with S5V, Q9S, H12E, R15A, Y19R, F58W, E59Q, I62W, V65M
ELISA_avg (BCMA): 18

B22: D domain SEQ ID NO: 854 (designed binder)
chain: MGSWVEFSGRLIAIDNRLWALGGSEAELAAFEKEIAAFESELQAYKGKGNPEVEYLRMWAAEIRYILQAYRHN
ELISA_avg (P26): 5.28

B23: D domain SEQ ID NO: 856 (designed binder)
chain: B22 chain with V5H, S8M, G9E, N16G, M58F, W59V, E62F, Y65D, I66V
ELISA_avg (P26): 17.9

B24: D domain SEQ ID NO: 852 (designed binder)
chain: B22 chain with V5H, S8I, G9T, I12E, N16Q, M58F, Y65F
ELISA_avg (P26): 16.9

B25: D domain SEQ ID NO: 855 (designed binder)
chain: B22 chain with S8H, G9H, I12F, N16E, W59V
ELISA_avg (P26): 21.4

B26: D domain SEQ ID NO: 853 (designed binder)
chain: B22 chain with V5M, S8F, G9D, I12V, N16E, Y65F, I66L
ELISA_avg (P26): 18.6

B29: D domain SEQ ID NO: 857 (designed binder)
chain: MGSWKEFIQRLDAIHYRLWALGGSEAELAAFEKEIAAFESELQAYKGKGNPEVEYLRFVAAFIRFELQAYRHN
ELISA_avg (P26): 18.4

B30: D domain SEQ ID NO: 858 (designed binder)
chain: B29 chain with K5S, Q9F, Y16S, W19Q, V59I, F62E, F65L, E66K
ELISA_avg (P26): 28.3

B31: D domain SEQ ID NO: 887 (designed binder)
chain: MGSWTEFWHRLEAIDSRLWALGGSEAELAAFEKEIAAFESELQAYKGKGNPEVESLREHAAHIRVWLQAYRHN
ELISA_avg (P26): 13.2

B32: D domain SEQ ID NO: 880 (designed binder)
chain: B31 chain with T5V, W8H, H9Y, E12Q, S16A, S55E, E58V, V65K
ELISA_avg (P26): 14.8

B33: D domain SEQ ID NO: 885 (designed binder)
chain: B31 chain with T5Y, W8Y, H9L, E12D, S16H, S55M, V65K
ELISA_avg (P26): 16

B34: D domain SEQ ID NO: 888 (designed binder)
chain: B31 chain with W8Q, H9N, E12N, S16H, H62K
ELISA_avg (P26): 30.5

B35: D domain SEQ ID NO: 877 (designed binder)
chain: B31 chain with T5I, W8Y, H9W, S16Q, S55D, E58V, H62A, V65W
ELISA_avg (P26): 9.4

B36: D domain SEQ ID NO: 876 (designed binder)
chain: B31 chain with T5F, W8Y, H9E, E12N, S55K, E58A, H62S, V65T
ELISA_avg (P26): 27.1

B37: D domain SEQ ID NO: 878 (designed binder)
chain: B31 chain with T5S, W8V, H9K, E12D, S16Q, E58V, H62A, V65A
ELISA_avg (P26): 27

B38: D domain SEQ ID NO: 882 (designed binder)
chain: MGSWNEFMDRLNAIDNRLWALGGSEAELAAFEKEIAAFESELQAYKGKGNPEVENLRKQAASIRLWLQAYRHN
ELISA_avg (P26): 10

B39: D domain SEQ ID NO: 881 (designed binder)
chain: B22 chain with S8V, I12N, N16A, Y55E, M58H, W59H, Y65N, I66W
ELISA_avg (P26): 26

B40: D domain SEQ ID NO: 883 (designed binder)
chain: B38 chain with M8F, D9Q, N16E, N55D, K58Q, Q59H, S62N, L65W
ELISA_avg (P26): 28.7

B41: D domain SEQ ID NO: 886 (designed binder)
chain: B31 chain with T5Y, W8R, H9A, E12L, S16E, S55H, V65N, W66F
ELISA_avg (P26): 20.9

B42: D domain SEQ ID NO: 859 (designed binder)
chain: B38 chain with N5F, M8Y, N16A, K58V, Q59H, S62A, L65E
ELISA_avg (P26): 5.92

B43: D domain SEQ ID NO: 884 (designed binder)
chain: B31 chain with T5Y, W8V, H9V, E12F, S16E, V65S
ELISA_avg (P26): 18.2

B44: D domain SEQ ID NO: 879 (designed binder)
chain: B31 chain with T5E, W8Y, H9Y, S16A, W19F, S55E, E58V, V65D
ELISA_avg (P26): 30.3

B45: D domain SEQ ID NO: 868 (designed binder)
chain: B31 chain with T5L, W8Y, E12N, E58D, V65E
ELISA_avg (P26): 19.2

B48: D-domain SEQ ID NO: 64 (designed binder)
chain: B1 chain with I5T, Q8M, F15S, H19W, D55V, A59Y, T62I, R65N, Q66S
ELISA_avg (BCMA): 9.87

B51: D domain SEQ ID NO: 851 (designed binder)
chain: MGSWHEFYDRLDAIYFRLWALGGSEAELAAFEKEIAAFESELQAYKGKGNPEVELLRLLAAEIRKELQAYRHN
ELISA_avg (P26): 9.6

B53: D-domain SEQ ID NO: 106 (designed binder)
chain: MGSWEEFSDRLEAILRRLDALGGSEAELAAFEKEIAAFESELQAYKGKGNPEVEDLRFAAAIIRVQLQAYRHN
ELISA_avg (BCMA): 9.08

Continued, values first:

ELISA_avg (BCMA): 14.1
B2: D-domain SEQ ID NO: 68 (designed binder)
chain: B1 chain with I5Y, E9S, H19F, D55K, D58E, T62S, R65T

ELISA_avg (BCMA): 20
B3: D-domain SEQ ID NO: 67 (designed binder)
chain: B1 chain with E9Q, H19Y, D55N, A59M, T62I, R65K

ELISA_avg (BCMA): 18
B5: D-domain SEQ ID NO: 60 (designed binder)
chain: B4 chain with I5S, S8A, R15H, Q19S, S58L, Y59F, R62Q, Q65E, E66N

ELISA_avg (BCMA): 8.43
B6: D-domain SEQ ID NO: 56 (designed binder)
chain: MGSWVEFAWRLTAIDQRLSALGGSEAELAAFEKEIAAFESELQAYKGKGNPEVENLRFYAAKIRSHLQAYRHN

ELISA_avg (BCMA): 11.5
B7: D-domain SEQ ID NO: 61 (designed binder)
chain: MGSWNEFAWRLIAINQRLWALGGSEAELAAFEKEIAAFESELQAYKGKGNPEVESLRHFAANIRNDLQAYRHN

ELISA_avg (BCMA): 15.1
B9: D-domain SEQ ID NO: 59 (designed binder)
chain: B4 chain with I5T, S8A, R15N, N50K, S55A, S58A, R62K, Q65T, E66R

ELISA_avg (BCMA): 6.08
B10: D-domain SEQ ID NO: 58 (designed binder)
chain: B6 chain with D15H, Q16T, S19W, N55S, F58K, S65K, H66Q

ELISA_avg (BCMA): 21.3
B11: D-domain SEQ ID NO: 55 (designed binder)
chain: B4 chain with I5V, Q19T, S55D, S58K, Q65G

ELISA_avg (BCMA): 8.9
B12: D-domain SEQ ID NO: 57 (designed binder)
chain: B6 chain with T12E, D15K, S19T, N55E, F58L, S65R, H66V

ELISA_avg (BCMA): 9.76
B13: D-domain SEQ ID NO: 102 (designed binder)
chain: B14 chain with S5V, Q8Y, Q9D, H12A, T16K, E59R, I62L, V65I, M66W

ELISA_avg (BCMA): 4.68
B15: D-domain SEQ ID NO: 109 (designed binder)
chain: B14 chain with S5Y, Q9N, H12G, R15N, T16R, Y19N

ELISA_avg (BCMA): 3.31
B16: D-domain SEQ ID NO: 110 (designed binder)
chain: B14 chain with S5Q, Q8T, Q9G, T16H, Y19E, I62Y, M66W

ELISA_avg (BCMA): 4.05
B17: D-domain SEQ ID NO: 74 (designed binder)
chain: MGSWFEFQHRLEAISMRLHALGGSEAELAAFEKEIAAFESELQAYKGKGNPEVEELRWQAAYIRVVLQAYRHN

ELISA_avg (BCMA): 14.2
B18: D-domain SEQ ID NO: 77 (designed binder)
chain: B17 chain with F5Y, H9V, E12Q, M16W, H19K, P51H, W58I, Y62L, V66M

ELISA_avg (BCMA): 18.7
B20: D-domain SEQ ID NO: 105 (designed binder)
chain: B53 chain with E5I, D9H, L15V, R16D, D19G, D55E, F58N, A59T, Q66Y

ELISA_avg (BCMA): 3.11
B21: D-domain SEQ ID NO: 76 (designed binder)
chain: B17 chain with F5E, H9Y, E12G, S15A, M16A, H19Q, Y62M, V65F, V66M

ELISA_avg (BCMA): 5.98
B27: D-domain SEQ ID NO: 70 (designed binder)
chain: MGSWSEFYDRLYAINQRLFALGGSEAELAAFEKEIAAFESELQAYKGKGNPEVEDLRWYAAFIRAQLQAYRHN

ELISA_avg (BCMA): 14.7
B28: D-domain SEQ ID NO: 71 (designed binder)
chain: B27 chain with S5Y, Y12D, N15V, Q16H, F19D, D55N, F62M, A65V, Q66R

ELISA_avg (BCMA): 7.58
B46: D-domain SEQ ID NO: 98 (designed binder)
chain: MGSWSEFRGRLQAIHSRLNALGGSEAELAAFEKEIAAFESELQAYKGKGNPEVEELRYSAAIIRIYLQAYRHN

ELISA_avg (BCMA): 12.9
B47: D-domain SEQ ID NO: 63 (designed binder)
chain: MGSWSEFMNRLDAITYRLVALGGSEAELAAFEKEIAAFESELQAYKGKGNPEVELLRHYAAQIRDSLQAYRHN

ELISA_avg (BCMA): 10.2
B49: D-domain SEQ ID NO: 69 (designed binder)
chain: B27 chain with Y8I, Y12D, N15T, Q16Y, D55N, A61G, F62V, A65E

ELISA_avg (BCMA): 10.8
B50: D-domain SEQ ID NO: 65 (designed binder)
chain: B47 chain with S5A, N9D, V19W, L55E, H58G, Q62I, D65S, S66E

ELISA_avg (BCMA): 8.55
B52: D-domain SEQ ID NO: 62 (designed binder)
chain: B6 chain with V5T, T12I, S19M, N55I, F58E, Y59L, K62E, S65F

ELISA_avg (BCMA): 6.3
B54: D-domain SEQ ID NO: 107 (designed binder)
chain: B53 chain with E5M, D9H, E12D, L15H, R16E, D19Y
